The values below come from publication PMC9174199, “Structural basis for MTA1c-mediated DNA N6-adenine methylation” (Nature Communications, 2022).

Changes are numbered by the printed parent chain. Names may count otherwise.

Assay [1] concerns the target T1, TthMTA1-Tthp2 binary complex (ITC) (Tetrahymena thermophila, UniProt Q22GC0).
T1 construct: gene TTHERM_00704040
Briefly: isothermal titration calorimetry. To be noted: 25 °C, pH 7.5, 300 mM NaCl, no DNA.

Assay [2] addresses T2, TthMTA1 (residues 126–372)-Tthp1-Tthp2 crystal complex (Tetrahymena thermophila, UniProt Q22GC0).
T2 construct: gene TTHERM_00704040; N-terminally truncated MTA1 with p1 and p2; p1 degraded in the crystal, only its HTH domain seen
T2 sequence (Q22GC0 182-428): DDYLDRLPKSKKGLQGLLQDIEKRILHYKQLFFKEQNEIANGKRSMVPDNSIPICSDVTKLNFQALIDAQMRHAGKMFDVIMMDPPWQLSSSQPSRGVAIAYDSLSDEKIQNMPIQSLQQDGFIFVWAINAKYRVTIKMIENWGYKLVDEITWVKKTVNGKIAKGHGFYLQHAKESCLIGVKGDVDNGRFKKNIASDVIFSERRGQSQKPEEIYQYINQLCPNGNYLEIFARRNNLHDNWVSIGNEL
The experiment in a line: X-ray crystal structure, soaking. Format: binding. To be noted: site in MTA1 MTase domain.

Assay [3] deals with T3, TthMTA1-Tthp1-Tthp2 ternary complex (ITC) (Tetrahymena thermophila, UniProt Q22GC0).
T3 construct: gene TTHERM_00704040
Briefly: isothermal titration calorimetry. To be noted: 25 °C, pH 7.5, 300 mM NaCl, no DNA.

For assay [4], the target named is T4, TthMTA1-Ptep2 (ITC) (Tetrahymena thermophila, UniProt Q22GC0).
T4 construct: gene TTHERM_00704040
The experiment in a line: isothermal titration calorimetry. Particulars: 25 °C, pH 7.5, 300 mM NaCl, no DNA.

The target of assay [5] is T5, TthMTA1 (residues 126-372)-Tthp2 crystal complex (Tetrahymena thermophila, UniProt Q22GC0).
T5 construct: gene TTHERM_00704040; N-terminally truncated MTA1 with p2
T5 sequence (Q22GC0 182-428): T2 sequence (Q22GC0 182-428)
The experiment in a line: X-ray crystal structure, soaking. The class given is binding. Particulars: site in MTA1 MTase domain.

Assay [6] concerns the target T6, TthMTA1-TthMTA9-Tthp2 ternary complex (ITC) (Tetrahymena thermophila, UniProt Q22GC0).
T6 construct: gene TTHERM_00704040
The experiment in a line: isothermal titration calorimetry. To be noted: 25 °C, pH 7.5, 300 mM NaCl, no DNA.

The target in assay [7] is T7, TthMTA1c (MTA1-MTA9-p1-p2 quaternary complex) (Tetrahymena thermophila, UniProt Q22GC0).
T7 construct: gene TTHERM_00704040
The experiment in a line: isothermal titration calorimetry. Particulars: 25 °C, pH 7.5, 300 mM NaCl, no DNA.

The target in assay [8] is Tetrahymena thermophila MTA1 (TthMTA1), untagged (Tetrahymena thermophila). Briefly: SEC; Superdex 200 Increase 10/300; purified proteins mixed at equimolar ratio (1:1, 1:1:1 or 1:1:1:1), 60 min on ice; 20 mM Tris pH 7.5, 300 mM NaCl, 2 mM DTT; peak fractions on SDS-PAGE.
The target of assay [9] is Paramecium tetraurelia MTA9 (PteMTA9), untagged. Briefly: GST pull-down. To be noted: parent: 100.
In assay [10] the target is T8, Tetrahymena thermophila MTA1 (TthMTA1), untagged.
T8 chain: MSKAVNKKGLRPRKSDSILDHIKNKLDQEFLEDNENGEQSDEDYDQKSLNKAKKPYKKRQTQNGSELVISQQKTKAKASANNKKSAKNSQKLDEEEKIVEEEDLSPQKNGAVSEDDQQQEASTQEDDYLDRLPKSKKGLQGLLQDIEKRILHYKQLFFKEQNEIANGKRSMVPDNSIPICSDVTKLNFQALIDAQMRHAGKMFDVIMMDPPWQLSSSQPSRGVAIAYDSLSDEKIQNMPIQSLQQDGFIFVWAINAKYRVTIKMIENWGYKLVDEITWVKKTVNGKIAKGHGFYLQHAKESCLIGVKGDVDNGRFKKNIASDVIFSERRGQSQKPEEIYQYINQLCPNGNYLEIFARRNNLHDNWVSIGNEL
Briefly: GST pull-down. To be noted: chain shown with the change;; parent: 100.

The target of assay [11] is T9, His6GST-Tthp2.
T9 chain: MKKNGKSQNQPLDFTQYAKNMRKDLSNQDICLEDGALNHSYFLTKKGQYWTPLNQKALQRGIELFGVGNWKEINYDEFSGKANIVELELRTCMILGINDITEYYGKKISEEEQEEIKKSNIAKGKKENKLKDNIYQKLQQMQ
Briefly: GST pull-down. Particulars: chain shown with the change;; parent: 100.

Assay [12] has as its target T10, GST-MTA1 (residues 171-372).
T10 chain: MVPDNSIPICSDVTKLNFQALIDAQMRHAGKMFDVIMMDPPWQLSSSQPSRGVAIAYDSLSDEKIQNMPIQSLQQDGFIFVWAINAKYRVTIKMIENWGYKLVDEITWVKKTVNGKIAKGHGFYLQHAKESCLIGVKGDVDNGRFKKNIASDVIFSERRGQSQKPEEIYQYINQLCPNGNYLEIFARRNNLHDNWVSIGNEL
Briefly: GST pull-down. To be noted: chain shown with the change;; parent: 100.

For assay [13], the target named is T8, Tetrahymena thermophila MTA1 (TthMTA1), …. Briefly: GST pull-down, gray scanning of bound MTA1 band. To be noted: chain shown with the change;; parent: 100.

As to `C[S+](CC[C@H](N)C(=O)O)C[C@H]1O[C@@H](n2cnc3c(N)ncnc32)[C@H](O)[C@@H]1O` (some centres unmarked) [SAM], the Kd in assay [1] worked out at 44.6 ± 3.4 µM; in assay [3], 14.8 ± 2.71 µM; in assay [4], 67.8 ± 5.45 µM; in assay [6], 3.64 ± 0.56 µM; in [7], 2.4 ± 0.26 µM. For the same molecule, the “X-ray crystal structure, soaking” value in assay [2] (3.4 Å, 1 mM SAM soak) is “SAM donor-bound MTA1-p1-p2 complex”; in assay [5] (1 mM SAM soak), “further confirmed by our SAM- and SAH-bound MTA1-p2 structures”.

For the molecule `Nc1ncnc2c1ncn2[C@@H]1O[C@H](CSCC[C@H](N)C(=O)O)[C@@H](O)[C@H]1O` [SAH], the “X-ray crystal structure, soaking” value in assay [2] (3.0 Å, 1 mM SAH soak) was “the SAH product-bound MTA1-p1-p2 complex by soaking approach”; in assay [5] (1 mM SAH soak), “further confirmed by our SAM- and SAH-bound MTA1-p2 structures”.

Turning to “Tetrahymena thermophila MTA9 (TthMTA9), untagged (natural protein)”, in [8], the stoichiometry N was determined as 1. As for GST-MTA1 (residues 171-372) Y294A, the percent of parent in [9] amounted to 12%. For the molecule GST-MTA1 (residues 171-372) H297A, in assay [9], the percent of parent amounted to 97%. In the case of GST-MTA1 (residues 171-372) L295A, the percent of parent in assay [9] was 7%.

Turning to GST-MTA1 (residues 171-372) Q296A, the percent of parent in assay [9] worked out at 95%.

B1: His6GST-Tthp1 L173A (protein)
chain: MSLKKGKFQHNQSKSLWNYTLSPGWREEEVKILKSALQLFGIGKWKKIMESGCLPGKSIGQIYMQTQRLLGQQSLGDFMGLQIDLEAVFNQNMKKQDVLRKNNCIINTGDNPTKEERKRRIEQNRKIYGLSAKQIAEIKLPKVKKHAPQYMTLEDIENEKFTNLEILTHLYNAKAEIVRRLAEQGETIAQPSIIKSLNNLNHNLEQNQNSNSSTETKVTLEQSGKKKYKVLAIEETELQNGPIATNSQKKSINGKRKNNRKINSDSEGNEEDISLEDIDSQESEINSEEIVEDDEEDEQIEEPSKIKKRKKNPEQESEEDDIEEDQEEDELVVNEEEIFEDDDDDEDNQDSSEDDDDDED
Turning to B1, the percent of parent in assay [10] was 78%.

B2: His6GST-Tthp1 L167A; L170A; L173A; I177A (protein)
chain: B1 chain with L167A, L170A, I177A
For B2, the percent of parent in assay [10] came out at 0%.

B3: His6GST-Tthp1 L170A (protein)
chain: B1 chain with L170A, A173L
For the molecule B3, the percent of parent in assay [10] stood at 47%.

B4: His6GST-Tthp1 I177A (protein)
chain: B1 chain with A173L, I177A
As to B4, in assay [10], the percent of parent came to 78%.

B5: His6GST-Tthp1 L167A; L170A; L173A (protein)
chain: B1 chain with L167A, L170A
As for B5, the percent of parent in assay [10] was determined as 0%.

B6: His6GST-Tthp1 L167A; L170A (protein)
chain: B1 chain with L167A, L170A, A173L
Consider B6, for which the percent of parent in [10] is 0%.

B7: His6GST-Tthp1 L167A (protein)
chain: B1 chain with L167A, A173L
For the molecule B7, the percent of parent in [10] came out at 48%.

B8: Tetrahymena thermophila MTA1 (TthMTA1), untagged R358A (protein)
chain: T8 chain with R358A
In the case of B8, the percent of parent in assay [11] was found to be 4%.

B9: Paramecium tetraurelia MTA9 (PteMTA9), untagged V219A (protein)
chain: MGKNQRESLRMRLRYNEPGSENKRINYFKLNQGYDITEDDSEYMDEQDSYKAFKKIRKYKTKSKEDKVTCDNLEVLLQWKGSINCQSYETDQKKIVVLKKILGTDLSQYAKGVQGIFIDNLFKKDLKNLDISKKLISNGILFIWSDKSLINEILETMENKGFTYIENLVVVQLSLEQALEELNKHMKIEQTEDAVLDNLDFLQQKVQVKDLILHRPSKALNQSKQVLIMFRKFDEQKSQLELRHQRTPDVLFDIVNNGKSCLKTKEYIYQTIETLLPKSQLMEIFAQKDQPRKGWISVCENK
Turning to B9, the percent of parent in assay [12] was found to be 45%.

B10: Paramecium tetraurelia MTA9 (PteMTA9), untagged L220A (protein)
chain: B9 chain with A219V, L220A
B10: the percent of parent in assay [12] worked out at 73%.

B11: Paramecium tetraurelia MTA9 (PteMTA9), untagged Y164A (protein)
chain: B9 chain with Y164A, A219V
Regarding B11, the percent of parent in assay [12] is 0%.

B12: Paramecium tetraurelia MTA9 (PteMTA9), untagged K218A (protein)
chain: B9 chain with K218A, A219V
For the molecule B12, the percent of parent in assay [12] was determined as 99%.

B13: His6GST-Tthp2 H39A (protein)
chain: T9 chain with H39A
Turning to B13, in [13], the percent of parent stood at 0%.

B14: His6GST-Tthp2 S26A (protein)
chain: T9 chain with S26A
Regarding B14, the percent of parent in [13] was determined as 50%.

B15: His6GST-Tthp2 D24A (protein)
chain: T9 chain with D24A
For B15, in assay [13], the percent of parent is 77%.

B16: His6GST-Tthp2 Y41A (protein)
chain: T9 chain with Y41A
With B16, the percent of parent in assay [13] was found to be 0%.

B17: His6GST-Tthp2 R22A (protein)
chain: T9 chain with R22A
In the case of B17, in assay [13], the percent of parent worked out at 0%.

B18: His6GST-Tthp2 Y17A (protein)
chain: T9 chain with Y17A
As to B18, the percent of parent in [13] was 0%.
